Results as given in paper PMC11548754, “DRN facilitates WUS transcriptional regulatory activity by chromatin remodeling to regulate shoot stem cell homeostasis in Arabidopsis”.

Experiments:
[1] = molecular target: T1, GST-WUS (WUSCHEL) (Arabidopsis thaliana, UniProt Q9SB92 1-292); experiment: EMSA; EMSA kit (Thermo 20148), biotin-labeled probe; buffer, salt, pH and temperature not stated; settings: protein: recombinant; tags: N-terminal GST (pGEX6p-1); chain copies: 2; label: biotin; blunt
T1 sequence: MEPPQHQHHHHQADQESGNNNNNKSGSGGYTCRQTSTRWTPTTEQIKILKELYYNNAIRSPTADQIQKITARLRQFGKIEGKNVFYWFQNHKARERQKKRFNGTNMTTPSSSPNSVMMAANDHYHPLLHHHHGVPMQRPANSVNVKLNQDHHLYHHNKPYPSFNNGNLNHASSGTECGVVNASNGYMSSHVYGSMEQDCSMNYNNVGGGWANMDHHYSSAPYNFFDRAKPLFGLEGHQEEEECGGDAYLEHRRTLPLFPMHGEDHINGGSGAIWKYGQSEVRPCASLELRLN

[2] = molecular target: GST-WUS (WUSCHEL);8His-MBP-DRN (DORNROSCHEN) (Arabidopsis thaliana;Arabidopsis …, UniProt Q9SB92;Q9SAD4 1-292;1-328, |); experiment: EMSA; super-shift on adding DRN to WUS; EMSA kit (Thermo 20148), biotin-labeled probe; buffer, salt, pH and temperature not stated; settings: protein: recombinant;recombinant; tags: N-terminal GST (pGEX6p-1);N-terminal 8His-MBP (modified pET28b); label: biotin; blunt
Sequence of GST-WUS (WUSCHEL);8His-MBP-DRN (DORNROSCHEN) (Q9SAD4 whole entry, one chain of several): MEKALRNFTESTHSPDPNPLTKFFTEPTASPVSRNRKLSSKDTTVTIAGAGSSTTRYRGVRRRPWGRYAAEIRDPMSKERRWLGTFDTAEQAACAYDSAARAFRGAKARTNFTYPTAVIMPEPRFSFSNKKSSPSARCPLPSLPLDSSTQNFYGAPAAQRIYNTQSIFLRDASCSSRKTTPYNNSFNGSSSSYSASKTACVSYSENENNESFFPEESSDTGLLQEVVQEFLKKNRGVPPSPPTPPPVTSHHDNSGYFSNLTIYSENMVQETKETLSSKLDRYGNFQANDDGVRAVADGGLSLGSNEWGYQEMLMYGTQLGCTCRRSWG

B1: CLV3 promoter probe (-1090 to -1064) (dsDNA)
DNA 1: GGCTCATATAATCCATTCAATTTATG
DNA 2: CATAAATTGAATGGATTATATGAGCC
- binding result [1]: binds
- binding result [2]: binds
